Assays:
[1] = biological target: T1, soluble cynomolgus monkey PD-1 (the extracellular domain of cynomolgus monkey PD-1 fused to a human Fc Region) (cynomolgus monkey, UniProt B0LAJ3 25-170); assay: ELISA: scyno-PD-1-TEV-Fc coated at 0.5 ug/ml, goat anti-mouse (H+L)-HRP, RLU
T1 construct: also called scyno-PD1 Fc; scynoPD-1-hFc; not shown: Human Fc Region and any linker or cleavage site between the extracellular domain and the Fc

[2] = biological target: T2, soluble human PD-1 (the extracellular domain of human PD-1 fused to a His tag) (human, UniProt Q15116 25-170); assay: ELISA: shPD-1 His coated at 0.5 ug/ml, goat anti-mouse (H+L)-HRP, RLU
T2 construct: also called shPD-1 His; shPD-1-His; not shown: His tag

[3] = biological target: T3, human PD-1 expressed on the surface of cells (NSO cells expressing human PD-1; MNFAT-luc2/PD-1 Jurkat cells) (human, UniProt Q15116 21-288); assay: FACS: biotinylated sPD-L2 on NSO cells expressing human PD-1, streptavidin-PE, MFI
T3 construct: also called cell surface PD-1; PDCD1 transfected NSO cells expressing PD-1

[4] = biological target: T4, soluble cynomolgus monkey PD-1 (scyno PD-1 hFc) cleaved to remove Fc portion (cynomolgus monkey, UniProt B0LAJ3 25-170); assay: Biacore, mAb captured on Protein A, analyte scyno PD-1 hFc cleaved of Fc
[5] = biological target: T2, soluble human PD-1 (the extracellular …); assay: Biacore, mAb captured on Protein A, analyte shPD-1 His
[6] = biological target: T2, soluble human PD-1 (the extracellular …); assay: Biacore, mAb captured on F(ab)2 goat anti-human Fc, analyte shPD-1 His
[7] = biological target: T3, human PD-1 expressed on the surface of …; assay: FACS saturation binding on NSO cells expressing human PD-1, goat anti-human-APC, MFI, 1:4 dilutions
[8] = biological target: T3, human PD-1 expressed on the surface of …; assay: FACS blocking on NSO cells expressing human PD-1, 1:4 dilutions, MFI; blocked ligand: biotinylated sPD-L1, streptavidin-PE
[9] = biological target: T4, soluble cynomolgus monkey PD-1 (scyno …); assay: Biacore, mAb captured on F(ab)2 goat anti-human Fc, analyte scyno PD-1 hFc cleaved of Fc
[10] = biological target: T3, human PD-1 expressed on the surface of …; assay: FACS blocking on NSO cells expressing human PD-1, 1:4 dilutions, MFI; blocked ligand: biotinylated sPD-L2, streptavidin-PE
[11] = biological target: T2, soluble human PD-1 (the extracellular …); assay: ELISA: shPD-1 His coated at 1 ug/ml, goat anti-mouse (H+L)-HRP, RLU
[12] = biological target: T5, PD-1 on the surface of CD4+ and CD8+ T cells of cynomolgus monkeys (cynomolgus monkey, UniProt B0LAJ3 25-288); assay: flow cytometry competition with labeled hPD-1 mAb 7 (1.2) IgG4 (P) on blood of cynomolgus monkeys given 10 mg/kg
T5 construct: In vivo occupancy read by flow cytometry; also called PD-1+/CD4+ and PD-1+/CD8+ cells

[13] = biological target: T3, human PD-1 expressed on the surface of …; assay: FACS saturation binding to NSO cells expressing PD-1; SM; SD 0.8112
[14] = biological target: T3, human PD-1 expressed on the surface of …; assay: FACS: inhibition of sPD-L1 binding to PD-1 on NSO cells; SM; SD 0.1668
[15] = biological target: T3, human PD-1 expressed on the surface of …; assay: FACS: inhibition of sPD-L2 binding to PD-1 on NSO cells; SM; SD 0.2563
[16] = biological target: T1, soluble cynomolgus monkey PD-1 (the …); assay: ELISA: scyno-PD-1-TEV-hFc coated at 1 ug/ml, goat anti-mouse (H+L) detection, RLU

B1: PD-1 mAb 6 (antibody, V domains shown)
VH: EVKLVESGGGLVNPGGSLKLSCAASGFTFSSYGMSWVRQTPEKRLEWVATISGGGSDTYYPDSVKGRFTISRDNAKNNLYLQMSSLRSEDTALYYCARQKATTWFAYWGQGTLVTVST
VL: not shown
notes: Murine monoclonal antibody
- binding result [1]: binds
- EC50 (read off the curve) [2]: ~0.3 nM

B2: biotinylated-soluble human PD-L2-muIgFc fusion protein (Ancell Cat #573-030) (Fc fusion, UniProt Q9BQ51 20-220, looked up)
chain: LFTVTVPKELYIIEHGSNVTLECNFDTGSHVNLGAITASLQKVENDTSPHRERATLLEEQLPLGKASFHIPQVQVRDEGQYQCIIIYGVAWDYKYLTLKVKASYRKINTHILKVPETDEVELTCQATGYPLAEVSWPNVSVPANTSHSRTPEGLYQVTSVLRLKPPPGRNFSCVFWNTHVRELTLASIDLQSQMEPRTHPT
modifications: biotinylated (site not stated)
notes: Bought reagent; also called shPD-L2; sPD-L2; not shown: murine Ig Fc
- binding result [3]: binds

B3: PD-1 mAb 5 (antibody, V domains shown)
VH: QVQLQQPGVELVRPGASVKLSCKASGYSFTAYWMNWMKQRPGQGLEWIGVIHPSDSETWLNQKFKDKATLTVDKSSSTAYMQLISPTSEDSAVYYCAREHYGSSPFAYWGQGTLVTVSA
VL: not shown
notes: Murine monoclonal antibody
- binding result [1]: binds
- EC50 (read off the curve) [2]: ~0.3 nM

B4: PD-1 mAb 7 (antibody, V domains shown)
VH: QVQLQQPGAELVRPGASVKLSCKASGYSFTSYWMNWVKQRPGQGLEWIGVIHPSDSETWLDQKFKDKATLTVDKSSTTAYMQLISPTSEDSAVYYCAREHYGTSPFAYWGQGTLVTVSS
VL: not shown
notes: Murine monoclonal antibody
- Kd [4]: 3.5 nM
- EC50 (read off the curve) [1]: ~0.3 nM
- Kd [5]: 1.3 nM
- EC50 (read off the curve) [2]: ~0.2 nM

B5: hPD-1 mAb 9 (1.1) IgG4 (P) (antibody)
heavy: not shown
light: DIQMTQSPSSLSASVGDRVTITCRASENIYSYLAWYQQKPGKAPKLLIYNAKTLAAGVPSRFSGSGSGTDFTLTISSLQPEDFATYYCQHHYAVPWTFGQGTKLEIKRTVAAPSVFIFPPSDEQLKSGTASVVCLLNNFYPREAKVQWKVDNALQSGNSQESVTEQDSKDSTYSLSSTLTLSKADYEKHKVYACEVTHQGLSSPVTKSFNRGEC
notes: also called hPD-1 mAb 9 IgG4 (P)
- Kd [6]: 9.5 nM
- EC50 (read off the curve) [7]: ~0.5 µg/mL
- IC50 (read off the curve) [8]: ~0.03 ug/test
- Kd [9]: 15.1 nM
- IC50 (read off the curve) [10]: ~0.1 ug/test

B6: hPD-1 mAb 9 (1.1) IgG1 (AA) (antibody)
heavy: not shown
light: DIQMTQSPSSLSASVGDRVTITCRASENIYSYLAWYQQKPGKAPKLLIYNAKTLAAGVPSRFSGSGSGTDFTLTISSLQPEDFATYYCQHHYAVPWTFGQGTKLEIKRTVAAPSVFIFPPSDEQLKSGTASVVCLLNNFYPREAKVQWKVDNALQSGNSQESVTEQDSKDSTYSLSSTLTLSKADYEKHKVYACEVTHQGLSSPVTKSFNRGEC
notes: also called hPD-1 mAb 9 IgG1 (AA)
- Kd [6]: 10.9 nM
- EC50 (read off the curve) [7]: ~0.2 µg/mL
- IC50 (read off the curve) [8]: ~0.06 ug/test
- Kd [9]: 9.3 nM
- IC50 (read off the curve) [10]: ~0.1 ug/test

B7: PD-1 mAb 2 (antibody, V domains shown)
VH: DVQLVESGGGLVQPGGSRKLSCAASGFVFSSFGMHWVRQAPEKGLEWVAYISSGSMSISYADTVKGRFTVTRDNAKNTLFLQMTSLRSEDTAIYYCASLSDYFDYWGQGTTLTVSS
VL: DVVMSQTPLSLPVSLGDQASISCRSSQSLVHSTGNTYLHWYLQKPGQSPKLLIYRVSNRFSGVPDRFSGSGSGTDFTLKISRVEAEDLGVFFCSQTTHVPWTFGGGTKLEIK
notes: Murine monoclonal antibody
- EC50 (read off the curve) [11]: ~0.3 nM
- Kd [4]: 14.3 nM
- EC50 (read off the curve) [1]: ~0.3 nM
- Kd [5]: 10.2 nM

B8: PD-1 mAb 4 (antibody, V domains shown)
VH: DVQLVESGGGLVQPGGSRKLSCAASGFVFSSFGMHWVRQAPEKGLEWVAYISSGSMSISYADTVKGRFTVTRDNAKNTLFLQMTSLRSEDTAIYYCASLTDYFDYWGQGTTLTVSS
VL: DVVMSQTPLSLPVSLGDQASISCRSSQSLVHSTGNTYFHWYLQKPGQSPKLLIYRVSNRFSGVPDRFSGSGSGTDFTLKISRVEAEDLGVYFCSQTTHVPWTFGGGTKLEIK
notes: Murine monoclonal antibody
- EC50 (read off the curve) [11]: ~0.3 nM
- EC50 (read off the curve) [1]: ~0.3 nM

B9: PD-1 mAb B IgG4 (P) (antibody, V domains shown)
VH: QVQLVQSGVEVKKPGASVKVSCKASGYTFTNYYMYWVRQAPGQGLEWMGGINPSNGGTNFNEKFKNRVTLTTDSSTTTAYMELKSLQFDDTAVYYCARRDYRFDMGFDYWGQGTTVTVSS
VL: EIVLTQSPATLSLSPGERATLSCRASKGVSTSGYSYLHWYQQKPGQAPRLLIYLASYLESGVPARFSGSGSGTDFTLTISSLEPEDFAVYYCQHSRDLPLTFGGGTKVEIK
- Kd [9]: 4 nM
- PD-1 binding on CD4+ and CD8+ T cells (% bound, in vivo) [12]: ≥ 80%

B10: hPD-1 mAb 7 (1.2) IgG4 (P) (antibody)
heavy: not shown
light: EIVLTQSPATLSLSPGERATLSCRASESVDNYGMSFMNWFQQKPGQPPKLLIHAASNQGSGVPSRFSGSGSGTDFTLTISSLEPEDFAVYFCQQSKEVPYTFGGGTKVEIKRTVAAPSVFIFPPSDEQLKSGTASVVCLLNNFYPREAKVQWKVDNALQSGNSQESVTEQDSKDSTYSLSSTLTLSKADYEKHKVYACEVTHQGLSSPVTKSFNRGEC
notes: also called MGD012
- Kd [6]: 1.5 nM
- EC50 (read off the curve) [7]: ~0.1 µg/mL
- EC50 [13]: 1210 nM
- IC50 (read off the curve) [8]: ~0.01 ug/test
- Kd [9]: 4.6 nM
- PD-1 binding on CD4+ and CD8+ T cells (% bound, in vivo) [12]: ≥ 80%
- IC50 [14]: 519 nM
- IC50 (read off the curve) [10]: ~0.02 ug/test
- IC50 [15]: 1040 nM

B11: PD-1 mAb 9 (antibody, V domains shown)
VH: EVMLVESGGGLVKPGGSLKLSCAASGFTFSSYLVSWVRQTPEKRLEWVATISGGGGNTYYSDSVKGRFTISRDNAKNTLYLQISSLRSEDTALYYCARYGFDGAWFAYWGQGTLVTVSS
VL: DIQMTQSPASLSASVGDIVTITCRASENIYSYLAWYQQKQEKSPQLLVYNAKTLAAGVPSRFSGSGSGTQFSLTINSLQPEDFGNYYCQHHYAVPWTFGGGTRLEIT
notes: Murine monoclonal antibody
- EC50 (read off the curve) [11]: ~0.4 nM
- binding result [16]: binds
- Kd [4]: 72.7 nM
- Kd [5]: 9.8 nM

B12: PD-1 mAb A IgG4 (P) (antibody, V domains shown)
VH: QVQLVESGGGVVQPGRSLRLDCKASGITFSNSGMHWVRQAPGKGLEWVAVIWYDGSKRYYADSVKGRFTISRDNSKNTLFLQMNSLRAEDTAVYYCATNDDYWGQGTLVTVSS
VL: EIVLTQSPATLSLSPGERATLSCRASQSVSSYLAWYQQKPGQAPRLLIYDASNRATGIPARFSGSGSGTDFTLTISSLEPEDFAVYYCQQSSNWPRTFGQGTKVEIK
- Kd [9]: 6 nM
- PD-1 binding on CD4+ and CD8+ T cells (% bound, in vivo) [12]: ≥ 80%

B13: PD-1 mAb 1 (antibody, V domains shown)
VH: DVQLQESGPGRVKPSQSLSLTCTVTGFSITNDYAWNWIRQFPGNKLEWMGHITYSGSTSYNPSLKSRISITRDTSKNHFFLQLSSVTPEDTATYYCARDYGSGYPYTLDYWGQGTSVTVSS
VL: QIVLTQSPALMSASPGEKVTMTCSATSIVSYVYWYQQKPGSSPQPWIYLTSNLASGVPARFSGSGSGTSYSLTISSMEAEDAATYYCQQWSDNPYTFGGGTKLEIK
notes: Murine monoclonal antibody
- EC50 (read off the curve) [11]: ~0.3 nM
- EC50 (read off the curve) [1]: ~0.3 nM
